Source: patent US11957716B2 (Immatics Biotechnologies GmbH, priority 2021, dated 2024)

How the values were obtained:
HLA-B*07:0 = HLA-B*07:0 (Homo sapiens, UniProt P01889); assay: MHC binding assay, UV-ligand exchange ELISA; conditions: peptide exchange yield, binding to HLA-B*07:0
Excerpt: (§1) Candidate peptides for T cell based therapies according to the present invention were further tested for their MHC binding capacity (affinity). The individual peptide-MHC complexes were produced by UV-ligand exchange, where a UV-sensitive peptide is cleaved upon UV-irradiation and exchanged with the peptide of interest as analyzed. Only peptide candidates that can effectively bind and stabilize the peptide-receptive MHC molecules prevent dissociation of the MHC complexes. To determine the yield of the exchange reaction, an ELISA was performed based on the detection of the light chain (β2m) of stabilized MHC complexes. The assay was performed as generally described in Rodenko et al. (Rodenko et al., 2006).
(§2) 96 well MAXISorp plates (NUNC) were coated over night with 2 μg/ml streptavidin in PBS at room temperature, washed 4× and blocked for 1 h at 37° C. in 2% BSA containing blocking buffer. Refolded HLA-A*02:01/MLA-001 monomers served as standards, covering the range of 15-500 ng/ml. Peptide-MHC monomers of the UV-exchange reaction were diluted 100-fold in blocking buffer. Samples were incubated for 1 h at 37° C., washed four times, incubated with 2 μg/ml HRP conjugated anti-82m for 1 h at 37° C., washed again and detected with TMB solution that is stopped with […]. Absorption was measured at 450 nm. Candidate peptides that show a high exchange yield (preferably higher than 50%, most preferred higher than 75%) are generally preferred for a generation and production of antibodies or fragments thereof, and/or T cell receptors or fragments thereof, as they show sufficient avidity to the MHC molecules and prevent dissociation of the MHC complexes.

[1] = test system: HLA-A*01:01, HLA-A*02:01, HLA-A*03:01, HLA-A*24:02, HLA-B*07:02, HLA-B*08:01 and HLA-B*44:02; assay: HLA alleles the peptides bind to (Table 7); type: binding, human; conditions: allotype from the group HLA-A*01:01, HLA-A*02:01, HLA-A*03:01, HLA-A*24:02, HLA-B*07:02, HLA-B*08:01, HLA-B*44:02
Excerpt: However, due to similarities in binding pattern such as the relevant anchoring positions some peptides bind to more than one allele, such an overlap is most likely, but not limited to, HLA-A*01 binding peptides also binding to HLA-B*15, HLA-A*03 binding peptides also binding to HLA-A*11, HLA-B*07 binding peptides also binding to HLA-B*35 and HLA-B*51.

HLA-A*24:02 = HLA-A*24:02 (Homo sapiens, UniProt P04439, D101N/D140Y/D185E/E176V/E190D/F33S/G103R/G107R/I119L/I121M/I306V/K335N/L105A/L180Q/L300P/N151K/N90K/Q86E/Q94H/R106L/R138H/R89G/T104I/T345S/V100E/W191G/Y123F); assay: MHC binding assay, UV-ligand exchange ELISA; conditions: peptide exchange yield, binding to HLA-A*24:02
Excerpt: as §1, §2

HLA-A*03:01 = HLA-A*03:01 (Homo sapiens, UniProt P04439); assay: MHC binding assay, UV-ligand exchange ELISA; conditions: peptide exchange yield, binding to HLA-A*03:01
Excerpt: as §1, §2

Substance | Peptide exchange (HLA-B*07:0) | other results
52 (SPLPHLGPL; listed as Homo sapiens) [compound 52] | +++ (≥50% = +++) | 
16 (NFHTLAQQLLF; listed as Homo sapiens) [compound 16] |  | Binders (HLA alleles the peptides according to the invention bind to) [1]: HLA-A*24:02; Peptide exchange (HLA-A*24:02): ++++ (75% = ++++)
183 (VFVISGSHLF; listed as Homo sapiens) [compound 183] |  | Binders (HLA alleles the peptides according to the invention bind to) [1]: HLA-A*24:02; Peptide exchange (HLA-A*24:02): ++++ (75% = ++++)
100 (SPAPSLARFLSL; listed as Homo sapiens) [compound 100] | ++++ (≥75% = ++++) | 
77 (YPDVPIGQL; listed as Homo sapiens) [compound 77] | +++ (≥50% = +++) | 
78 (TPSHSTPSF; listed as Homo sapiens) [compound 78] | +++ (≥50% = +++) | 
180 (QYLTYYPSF; listed as Homo sapiens) [compound 180] |  | Binders (HLA alleles the peptides according to the invention bind to) [1]: HLA-A*24:02; Peptide exchange (HLA-A*24:02): ++++ (75% = ++++)
47 (LYIFTTRPF; listed as Homo sapiens) [compound 47] |  | Binders (HLA alleles the peptides according to the invention bind to) [1]: HLA-A*24:02; Peptide exchange (HLA-A*24:02): ++++ (75% = ++++)
55 (SPVSASWIL; listed as Homo sapiens) [compound 55] | ++++ (≥75% = ++++) | 
116 (IYLTKSNLVNM; listed as Homo sapiens) [compound 116] |  | Binders (HLA alleles the peptides according to the invention bind to) [1]: HLA-A*24:02; Peptide exchange (HLA-A*24:02): ++++ (75% = ++++)
64 (LPTRSLPAF; listed as Homo sapiens) [compound 64] | +++ (≥50% = +++) | 
195 (AWNESSAWLL; listed as Homo sapiens) [compound 195] |  | Binders (HLA alleles the peptides according to the invention bind to) [1]: HLA-A*24:02; Peptide exchange (HLA-A*24:02): ++++ (75% = ++++)
155 (MPWVLMSPF; listed as Homo sapiens) [compound 155] | ++++ (≥75% = ++++) | 
43 (VFIPSVINL; listed as Homo sapiens) [compound 43] |  | Binders (HLA alleles the peptides according to the invention bind to) [1]: HLA-A*24:02; Peptide exchange (HLA-A*24:02): ++++ (75% = ++++)
110 (APSLARFLSL; listed as Homo sapiens) [compound 110] | ++++ (≥75% = ++++) | 
13 (LYDTVTHTF; listed as Homo sapiens) [compound 13] |  | Binders (HLA alleles the peptides according to the invention bind to) [1]: HLA-A*24:02; Peptide exchange (HLA-A*24:02): ++++ (75% = ++++)
63 (MPANFETIGF; listed as Homo sapiens) [compound 63] | ++++ (≥75% = ++++) | 
103 (RPWLSSPTGL; listed as Homo sapiens) [compound 103] | ++++ (≥75% = ++++) | 
173 (IFTGRNAYF; listed as Homo sapiens) [compound 173] |  | Binders (HLA alleles the peptides according to the invention bind to) [1]: HLA-A*24:02; Peptide exchange (HLA-A*24:02): ++++ (75% = ++++)
109 (MPKLFLTAC; listed as Homo sapiens) [compound 109] | ++++ (≥75% = ++++) | 
89 (SPSSPLLLLA; listed as Homo sapiens) [compound 89] | +++ (≥50% = +++) | 

Substance | Peptide exchange (HLA-B*07:0) | other results
114 (VPHHLLSSV; listed as Homo sapiens) [compound 114] | ++++ (≥75% = ++++) | 
137 (MPIQVLKGL; listed as Homo sapiens) [compound 137] | ++++ (≥75% = ++++) | 
126 (NPELLVILL; listed as Homo sapiens) [compound 126] | +++ (≥50% = +++) | 
41 (APQPRSLAA; listed as Homo sapiens) [compound 41] | ++++ (≥75% = ++++) | 
93 (SPIGLSLIL; listed as Homo sapiens) [compound 93] | ++++ (≥75% = ++++) | 
85 (LPHPVNSGL; listed as Homo sapiens) [compound 85] | +++ (≥50% = +++) | 
15 (SPVETRSLL; listed as Homo sapiens) [compound 15] | +++ (≥50% = +++) | 
129 (IPISIFKMA; listed as Homo sapiens) [compound 129] | +++ (≥50% = +++) | 
134 (MPCTTILRI; listed as Homo sapiens) [compound 134] | ++++ (≥75% = ++++) | 
59 (AVDLGVLEL; listed as Homo sapiens) [compound 59] | +++ (≥50% = +++) | 
124 (SPSSNSREL; listed as Homo sapiens) [compound 124] | +++ (≥50% = +++) | 
96 (HPRESLNMLVAF; listed as Homo sapiens) [compound 96] | ++++ (≥75% = ++++) | 
111 (RPIWDVRSA; listed as Homo sapiens) [compound 111] | ++++ (≥75% = ++++) | 
140 (QPAPQPLL; listed as Homo sapiens) [compound 140] | +++ (≥50% = +++) | 
66 (RPLILIRI; listed as Homo sapiens) [compound 66] | ++ (≥20% = ++) | 
120 (APGPRSQGL; listed as Homo sapiens) [compound 120] | +++ (≥50% = +++) | 
21 (MLSAQFILK; listed as Homo sapiens) [compound 21] |  | Binders (HLA alleles the peptides according to the invention bind to) [1]: HLA-A*03:01; Peptide exchange (HLA-A*03:01): ++++ (≥75% = ++++)
72 (GSCSFALSR; listed as Homo sapiens) [compound 72] |  | Binders (HLA alleles the peptides according to the invention bind to) [1]: HLA-A*03:01; Peptide exchange (HLA-A*03:01): ++++ (≥75% = ++++)
75 (TTAAVYILK; listed as Homo sapiens) [compound 75] |  | Binders (HLA alleles the peptides according to the invention bind to) [1]: HLA-A*03:01; Peptide exchange (HLA-A*03:01): +++ (≥50% = +++)
161 (ILAASFQAR; listed as Homo sapiens) [compound 161] |  | Binders (HLA alleles the peptides according to the invention bind to) [1]: HLA-A*03:01; Peptide exchange (HLA-A*03:01): +++ (≥50% = +++)
38 (AVVSHFILY; listed as Homo sapiens) [compound 38] |  | Binders (HLA alleles the peptides according to the invention bind to) [1]: HLA-A*03:01; Peptide exchange (HLA-A*03:01): +++ (≥50% = +++)

Further lines, with some results ahead:

Peptide exchange (HLA-B*07:0) | Substance | other results
++++ (≥75% = ++++) | 191 (APLLPGPAA; listed as Homo sapiens) [compound 191] | 
++++ (≥75% = ++++) | 169 (RPQGVGPAA; listed as Homo sapiens) [compound 169] | 
+++ (≥50% = +++) | 215 (TPLTRTTL; listed as Homo sapiens) [compound 215] | 
++ (≥20% = ++) | 184 (VVHGGMSIF; listed as Homo sapiens) [compound 184] | 
+++ (≥50% = +++) | 162 (LPVHGPLPLLL; listed as Homo sapiens) [compound 162] | 
++++ (≥75% = ++++) | 208 (YVGPTRLEL; listed as Homo sapiens) [compound 208] | 
+++ (≥50% = +++) | 199 (RAPLPLLLL; listed as Homo sapiens) [compound 199] | 
++++ (≥75% = ++++) | 207 (LPALLRSL; listed as Homo sapiens) [compound 207] | 
+++ (≥50% = +++) | 182 (RPSLPCRSF; listed as Homo sapiens) [compound 182] | 
+++ (≥50% = +++) | 156 (SLRVPSPAL; listed as Homo sapiens) [compound 156] | 
+++ (≥50% = +++) | 210 (ASRIQVILL; listed as Homo sapiens) [compound 210] | 
++++ (≥75% = ++++) | 192 (IPLHFSTAF; listed as Homo sapiens) [compound 192] | 
++++ (≥75% = ++++) | 175 (MPFLKVPPL; listed as Homo sapiens) [compound 175] | 
++++ (≥75% = ++++) | 214 (RPSPVRVAAL; listed as Homo sapiens) [compound 214] | 
++++ (≥75% = ++++) | 157 (APLRAGWAA; listed as Homo sapiens) [compound 157] | 
++++ (≥75% = ++++) | 185 (MPAFLSRASAL; listed as Homo sapiens) [compound 185] | 
